Test results taken from US5196309A, “Characterization of platelet aggregation disorders” (The Scripps Research Institute, priority 1990, dated 1993).
Where no end group is shown, it is not given here.

How the values were obtained:
[1] = tested on: normal GPIIb-IIIa; experiment: KYGRGDS affinity chromatography of surface-labeled platelet lysate, normal platelets; assay type: binding, human
Method: (§1) To directly examine the ligand binding function of Cam GPIIb-IIIa, extracts of ^125 I surface-labeledplatelets were subjected to affinity chromatography using an immobilized RGD peptide.
(§2) Platelets were isolated from acid-citrate dextrose anticoagulated human blood by differential centrifugation followed by gel filtration on Sepharose 2B (Ginsberg et al., Blood, 69:58 (1987)). Lysates of surface-labeled platelets were analyzed by KYGRGDS affinity chromatography as described by Lam et al., J. Biol. Chem., 262:947 (1987). Briefly, intact platelets were radioiodinated by the lactoperoxidase-H2 O2 method then resuspended to 2×10^8 platelets/mL and solubilized in lysis buffer containing 10 mmol/L N-2-hydroxyethylpiperazine-N'-2-ethanesulfonic acid (HEPES), pH 7.5, 0.15 mol/L NaCl, 1 mmol/L CaCl2, 1 mmol/L MgCl2, 0.1 mmol/L leupeptin, 1 mmol/L phenylmethanesulfonylfluoride (PMSF), 10 mmol/L N-ethylmaleimide, and 50 mmol/L octylglucoside. […] Under these conditions approximately 10% of normal GPIIb-IIIa is bound and eluted.
(§3) The GPIIb-IIIa content in the starting material and in the column fractions was quantitated by use of a polyclonal anti-GPIIb-IIIa antibody in an ELISA assay. The control extract contained 332 μg; the Cam individual contained 240 μg in the starting extract. The eluted fractions from the control extract contained 20 μg GPIIb-IIIa. […]

[2] = tested on: Cam GPIIb-IIIa; experiment: KYGRGDS affinity chromatography of surface-labeled platelet lysate, Cam platelets; assay type: binding, human; conditions: Cam extract, 240 μg GPIIb-IIIa in starting extract; eluted with GRGDSP
Method: as §1, §2, §3

[3] = target: T1, GPIIb-IIIa on Cam platelets (Homo sapiens, UniProt P05106+P08514, D145Y); experiment: Flow cytometry of platelet surface GPIIb-IIIa, Cam variant thrombasthenia platelets; assay type: binding
T1 construct: from tissue; host or cells: platelets in platelet-rich plasma from venous blood of two Cam variant siblings
Excerpt: FIGS. 2A through 2H show a flow cytometric analysis of the deficit in Cam variant of thrombasthenia. Shown are histograms with the log of fluorescence intensity on the abscissa and cell number on the ordinate. The reporting antibody is indicated in the left hand column. Cam platelets are shown in FIGS. 2A, 2C, 2E and 2G and the normal control in FIGS. 2B, 2D, 2F and 2H. Each column of figures contains a legend indicating the added agonist, peptide, or antibody. […] Similar data were obtained with other antibodies to GPIIb-IIIa (7E3, 10E5, 4F10) and an antibody to GPIIb (Tab). The Cam variant data shown are representative of determinations on two affected male siblings with identical results.
Based on the model depicted in FIG. 1, abnormal platelet aggregation can arise from a defect in the activation of platelet fibrinogen receptors, a defect in fibrinogen binding per se, or a defect in the postoccupancy events required for optimal aggregation. The potential usefulness of this model was tested by studying two patients with persistent and severe defects in platelet aggregation. To quantitate fibrinogen receptor activation and ligand binding, a fluorescein-labeled MoAb (PAC1) which specifically recognizes the activated form of GPIIb-IIIa, was employed (Shattil et al., J. Biol. Chem., 260:11107 (1985)). Antibody binding was measured in small (5 μL) samples of platelet rich plasma by flow cytometry.
Platelet rich plasma was obtained by taking venous blood from patients and controls who had not ingested medications for at least 10 days, anticoagulating with 1/10 volume of 3.8% sodium citrate, and sedimentating red and white blood cells at 180 g for 20 minutes at room temperature. Immediately thereafter, 5-μL aliquots of platelet-rich plasma were added to polypropylene tubes containing a fluorescein isothiocyanate-conjugated monoclonal antibody (10^-9 to 10^-6 mol/L) in Tyrode's buffer (1% bovine serum albumin, 2 mmol/L MgCl2, 137.5 mmol/L NaCl, 12 mmol/L NaHCO3, 2.6 mmol/L KCl, pH 7.4). Samples were incubated without stirring in a total volume of 50 μL for 15 minutes at room temperature with agonists and peptides as indicated. Samples were then diluted to 0.5 mL with Tyrode's buffer and analyzed on a FACStar flow cytometer (Bectin-Dickinson Immunocytometry Systems, Mountain View, Calif.). Light scatter and fluorescence signals were acquired at logarithmic gain, and 10,000 platelets in each sample were analyzed. Results are expressed as mean platelet fluorescence intensity in arbitrary fluorescence units or as histograms of log platelet fluorescence intensity in arbitrary units on the abscissa and platelet number on the ordinate.

[4] = tested on: GPIIb-IIIa on MPD platelets; experiment: Flow cytometry of platelet surface GPIIb-IIIa, myelofibrosis (MPD) patient platelets; assay type: binding, human
Method: The disclosing antibody is indicated in the left hand column. In each column, the legend indicates the added agonist or peptide. Agonist and peptide concentrations were identical to those in FIGS. 2A-2H. Phorbol myristate acetate (PMA) was present in a final concentration of 50 nmol/L. Anti-TSP refers to the binding of a MoAb against thrombospondin.
(§4) Samples were incubated without stirring in a total volume of 50 μL for 15 minutes at room temperature with agonists and peptides as indicated. Samples were then diluted to 0.5 mL with Tyrode's buffer and analyzed on a FACStar flow cytometer (Bectin-Dickinson Immunocytometry Systems, Mountain View, Calif.). Light scatter and fluorescence signals were acquired at logarithmic gain, and 10,000 platelets in each sample were analyzed. Results are expressed as mean platelet fluorescence intensity in arbitrary fluorescence units or as histograms of log platelet fluorescence intensity in arbitrary units on the abscissa and platelet number on the ordinate.

[5] = tested on: platelets; conditions: cited from earlier work
[6] = tested on: GPIIb-IIIa; conditions: cited from earlier work
[7] = tested on: platelets; experiment: 125I-fibrinogen binding to platelets; conditions: 10 uM ADP; 37 degrees, 30 minutes
Method: Fibrinogen was isolated and labelled with ^125 I by standard methods as described by Marguerie et al., J. Biol. Chem., 255:154-161 (1980) to form ^125 I-Fg. Thereafter, the binding of ^125 I-Fg to platelets was assayed as described previously. Marguerie et al., J. Biol. Chem., 255:154-161 (1980). Binding was initiated by the admixture of a million resting platelets in the presence or absence of 10 micromolar adenosine diphosphate (ADP) to radiolabelled fibrinogen at varying concentrations from 0.01 to 1 nanomolar (nM) and incubation at 37 degrees for 30 minutes. Bound fibrinogen was separated from free fibrinogen by centrifugation of the platelet-fibrinogen admixture through 0.3 ml of 20% sucrose and the amount of radiolabelled fibrinogen associated with the cell pellet determined by gamma detection.

[8] = target: T2, GPIIb-IIIa on normal platelets (Homo sapiens, UniProt P05106+P08514); experiment: Flow cytometry of platelet surface GPIIb-IIIa, normal (control) platelets; assay type: binding
T2 construct: Analysis of Platelet Surface GPIIb-IIIa by Flow Cytometry; from tissue; host or cells: platelets in platelet-rich plasma from venous blood of controls
Method: as §4

KYGRGDS [Lys-Tyr-Gly-Arg-Gly-Asp-Ser]
GPIIb-IIIa in eluted fractions (ELISA) ([1]; control extract, 332 μg GPIIb-IIIa in starting extract, eluted with GRGDSP): 20 µg | Share of normal GPIIb-IIIa bound to KYGRGDS-Sepharose and eluted ([1]; lysate 12 hours at 4° C., eluted with 1 mmol/L GRGDSP): approximately 10% | GPIIb-IIIa in eluted fractions (ELISA) [2]: 2.6 µg

PAC 1
PAC1 fluorescence of PMA-activated Cam platelets ([3]; 50 nmol/L phorbol myristate acetate (PMA)): no increase | PAC1 binding to ADP-activated Cam platelets ([3]; ADP 100 μmol/L): complete lack of binding | Expression of PAC1 binding sites on stimulated MPD platelets ([4]; 50 μmol/L epinephrine (not shown)): did not express PAC1 binding sites | Expression of PAC1 binding sites on stimulated MPD platelets ([4]; 10 μm ADP): did not express PAC1 binding sites | PAC1 binding to MPD platelets in response to PMA ([4]; PMA 50 nmol/L): bound | Fibrinogen Binding (effect of antibody on fibrinogen binding to platelets) [5]: Decrease | Effect of Peptides (RGD or fibrinogen gamma chain C-terminal peptides) on antibody binding [6]: Decrease

Nc1ncnc2c1ncn2[C@@H]1O[C@H](COP(=O)(O)OP(=O)(O)O)[C@@H](O)[C@H]1O [ADP, adenosine diphosphate]
Increase in number of 125I-Fg molecules bound to platelets [7]: at least a three fold increase

Gly-Arg-Gly-Asp-Ser-Pro [GRGDSP]
Fluorescence Increase (LIBS-1 expression, anti-LIBS 1 binding), Normal ([8]; [GRGDSP] 2 μM, normal platelets): 20 | Fluorescence Increase (LIBS-1 expression, anti-LIBS 1 binding), Normal ([8]; [GRGDSP] 4 μM, normal platelets): 31 | Fluorescence Increase (LIBS-1 expression, anti-LIBS 1 binding), Normal ([8]; [GRGDSP] 10 μM, normal platelets): 48 | Fluorescence Increase (LIBS-1 expression, anti-LIBS 1 binding), Normal ([8]; [GRGDSP] 40 μM, normal platelets): 70 | Fluorescence Increase (LIBS-1 expression, anti-LIBS 1 binding), Normal ([8]; [GRGDSP] 200 μM, normal platelets): 106 | PMI-1 binding, mean fluorescence intensity ([8]; normal platelets treated with 200 μmol/L GRGDSP): 151 fluorescence units | anti-LIBS1 binding, mean fluorescence ([8]; normal platelets with GRGDSP 200 μmol/L): 205 U | Increase in PMI-1 binding ([8]; normal platelets, 200 μmol/L GRGDSP): 2.5 fold | Increase in anti-LIBS1 binding caused by peptide ([8]; normal platelets, GRGDSP 200 μmol/L): fourfold increase | PMI-1 binding, mean fluorescence intensity ([3]; Cam platelets treated with 200 μmol/L GRGDSP): 107 fluorescence units | anti-LIBS1 binding, mean fluorescence ([3]; Cam platelets with GRGDSP 200 μmol/L): 25 U | Change in PMI-1 binding in response to GRGDSP ([3]; Cam platelets, 200 μmol/L GRGDSP): no increase | Change in anti-LIBS1 binding caused by GRGDSP ([3]; Cam platelets, GRGDSP 200 μmol/L): no increase | Fluorescence Increase (LIBS-1 expression, anti-LIBS 1 binding), Cam ([3]; [GRGDSP] 2 μM, Cam platelets): 3 | Fluorescence Increase (LIBS-1 expression, anti-LIBS 1 binding), Cam ([3]; [GRGDSP] 4 μM, Cam platelets): 3 | Fluorescence Increase (LIBS-1 expression, anti-LIBS 1 binding), Cam ([3]; [GRGDSP] 10 μM, Cam platelets): 3 | Fluorescence Increase (LIBS-1 expression, anti-LIBS 1 binding), Cam ([3]; [GRGDSP] 40 μM, Cam platelets): 3 | Fluorescence Increase (LIBS-1 expression, anti-LIBS 1 binding), Cam ([3]; [GRGDSP] 200 μM, Cam platelets): 6

LGGAKQAGDV [gamma(402-411)]
anti-LIBS1 binding, fluorescence ([8]; control platelets with gamma(402-411) 400 μmol/L): 201 fluorescence U | anti-LIBS1 binding, fluorescence ([3]; Cam platelets with gamma(402-411) 400 μmol/L): 31 U | Change in anti-LIBS1 binding caused by gamma(402-411) ([3]; Cam platelets, gamma(402-411) 400 μmol/L): failed to increase
